# Assays:
# [1] = molecular target: Strep-FAM111A (human, UniProt Q96PZ2 1-611); assay: fluorescence polarization; EMSA: 25 mM Tris-HCl pH 7.5, 5 mM MgCl2, 10% glycerol, 20 ng/ul BSA, 1 mM DTT, 0.7 pmol DNA in 10 ul, on ice 1 h; FP: 10 mM HEPES-NaOH pH 7.5, 150 mM NaCl, 10 nM DNA; details: protein: recombinant; tags: N-terminal tandem Strep; label: 5' 6-FAM; single strand
# [2] = molecular target: T1, GST-FAM111A-strep (human, UniProt Q96PZ2 1-611); assay: EMSA; 5 mM Mg2+; EMSA: 25 mM Tris-HCl pH 7.5, 5 mM MgCl2, 10% glycerol, 20 ng/ul BSA, 1 mM DTT, 0.7 pmol DNA in 10 ul, on ice 1 h; FP: 10 mM HEPES-NaOH pH 7.5, 150 mM NaCl, 10 nM DNA; details: protein: recombinant, tags: N-terminal GST, C-terminal tandem Strep
# T1 sequence (Q96PZ2 whole entry): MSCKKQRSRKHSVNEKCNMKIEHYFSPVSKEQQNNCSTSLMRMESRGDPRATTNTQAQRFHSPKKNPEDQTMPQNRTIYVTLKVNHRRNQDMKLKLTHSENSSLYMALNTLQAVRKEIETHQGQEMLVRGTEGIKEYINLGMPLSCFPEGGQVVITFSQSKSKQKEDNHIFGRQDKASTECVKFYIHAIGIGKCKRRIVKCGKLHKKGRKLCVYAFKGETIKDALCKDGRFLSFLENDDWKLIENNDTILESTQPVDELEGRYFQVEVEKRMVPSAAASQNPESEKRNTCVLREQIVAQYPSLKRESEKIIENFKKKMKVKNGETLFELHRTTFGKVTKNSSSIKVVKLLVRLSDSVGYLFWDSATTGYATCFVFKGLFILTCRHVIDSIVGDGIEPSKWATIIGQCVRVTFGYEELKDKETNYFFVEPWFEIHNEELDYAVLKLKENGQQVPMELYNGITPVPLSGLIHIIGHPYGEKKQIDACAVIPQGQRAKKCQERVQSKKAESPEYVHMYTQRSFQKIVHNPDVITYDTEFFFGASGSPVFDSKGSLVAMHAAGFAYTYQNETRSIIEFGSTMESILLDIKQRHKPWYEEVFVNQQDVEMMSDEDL
# [3] = molecular target: MBP-FAM111A 1-282 (human, UniProt Q96PZ2 1-282); assay: as above; details: protein: recombinant; tags: N-terminal MBP; label: 5' IRDye700; single strand
# MBP-FAM111A 1-282, sequence (Q96PZ2 1-282): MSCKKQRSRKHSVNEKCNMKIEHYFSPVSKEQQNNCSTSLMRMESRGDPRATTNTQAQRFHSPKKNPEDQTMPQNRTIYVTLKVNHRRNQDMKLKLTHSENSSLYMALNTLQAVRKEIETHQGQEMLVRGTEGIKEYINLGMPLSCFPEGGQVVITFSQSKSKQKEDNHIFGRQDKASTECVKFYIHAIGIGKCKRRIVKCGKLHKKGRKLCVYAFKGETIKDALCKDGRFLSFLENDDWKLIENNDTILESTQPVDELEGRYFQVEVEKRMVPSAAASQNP
# [4] = molecular target: MBP-FAM111A 176-282 (human, UniProt Q96PZ2 176-282); assay: as above; details: protein: recombinant; tags: N-terminal MBP; label: 5' IRDye700; single strand
# MBP-FAM111A 176-282, sequence (Q96PZ2 176-282): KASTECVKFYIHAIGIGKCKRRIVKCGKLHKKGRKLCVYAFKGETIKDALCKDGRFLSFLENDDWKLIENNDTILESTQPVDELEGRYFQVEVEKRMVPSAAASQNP
# [5] = molecular target: T1, GST-FAM111A-strep; assay: EMSA; 5 mM Mg2+; up to 450 nM protein; EMSA: 25 mM Tris-HCl pH 7.5, 5 mM MgCl2, 10% glycerol, 20 ng/ul BSA, 1 mM DTT, 0.7 pmol DNA in 10 ul, on ice 1 h; FP: 10 mM HEPES-NaOH pH 7.5, 150 mM NaCl, 10 nM DNA; details: protein: recombinant; tags: N-terminal GST, C-terminal tandem Strep; label: 5' IRDye700 on strand 1; fork 1:2 1:3 2:4; both arms double-stranded
# Strep-FAM111A, sequence (Q96PZ2 whole entry): as the sequence (Q96PZ2 whole entry) above
binder,measurement,setting,value
CGACGATGCTCCGGTACTCCAGTGTAGGCAT (ssDNA) [6-FAM-O1676 (31 nt)],Kd,[1],~0.06 µM
ssDNA O3063 (75 nt) (ssDNA) DNA: GTTTTCCCAGTCACGACGATGCTCCGGTACTCCAGTGTAGGCATATTACGAATTCTTGAGGCAGGCATGGTAGCT,binding result,"[2]; label: 5' IRDye700, single strand",binds
same,binding result,[3],binds
same,binding result,[4],binds
Y fork O3063/O4787 (mixed) DNA 1: GTTTTCCCAGTCACGACGATGCTCCGGTACTCCAGTGTAGGCATATTACGAATTCTTGAGGCAGGCATGGTAGCT DNA 2: AGCTACCATGCCTGCCTCAAGAATTCGTAATATGCCTACACTGGACCGTACTTCGCCTAGTAGACTGCCTTCCCG,binding result,"[2]; label: 5' IRDye700 on strand 1, fork 1:2, 45 bp duplex, two 30-nt ss arms",binds
dsY fork O3063/O4787/O3730/O3757 (dsDNA) DNA 1: GTTTTCCCAGTCACGACGATGCTCCGGTACTCCAGTGTAGGCATATTACGAATTCTTGAGGCAGGCATGGTAGCT DNA 2: AGCTACCATGCCTGCCTCAAGAATTCGTAATATGCCTACACTGGACCGTACTTCGCCTAGTAGACTGCCTTCCCG DNA 3: GTACCGGAGCATCGTCGTGACTGGGAAAAC DNA 4: CGGGAAGGCAGTCTACTAGGCGAAGTACGG,binding result,[5],no binding

# From paper PMC7067828, “FAM111A protects replication forks from protein obstacles via its trypsin-like domain”
